{"source": "paper PMC5437177"}
{"target": "T1, ABI5 (Arabidopsis thaliana) (UniProt Q9SJN0)", "T1 sequence": "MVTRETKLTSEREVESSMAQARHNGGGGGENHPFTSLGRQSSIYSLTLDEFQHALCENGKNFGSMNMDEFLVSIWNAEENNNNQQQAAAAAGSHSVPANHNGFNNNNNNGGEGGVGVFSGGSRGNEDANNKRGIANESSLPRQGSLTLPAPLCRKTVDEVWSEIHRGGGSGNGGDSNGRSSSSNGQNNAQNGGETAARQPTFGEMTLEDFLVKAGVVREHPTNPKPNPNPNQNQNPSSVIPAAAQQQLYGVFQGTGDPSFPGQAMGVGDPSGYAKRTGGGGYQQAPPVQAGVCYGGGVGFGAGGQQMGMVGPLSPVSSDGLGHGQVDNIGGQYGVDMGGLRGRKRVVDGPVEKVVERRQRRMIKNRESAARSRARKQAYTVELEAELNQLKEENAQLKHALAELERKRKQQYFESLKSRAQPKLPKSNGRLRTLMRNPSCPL", "assay": "EMSA", "conditions": "25 mM HEPES pH 8.0, 40 mM KCl, 5 mM MgCl2, 1 mM DTT, 1 mM EDTA, 8% glycerol, 1 ug/uL poly(dI-dC), 30 min room temperature; 5% native PAGE at 4 C"}
{"sequence": "TCCTGAAATGGATCAACAATTGTCTAATTATGGTATAGTATCTGGCGAAATCAAAGACGATATCATCCACTTTTAATTAGTTTGACTATTAATACGAGGATTATCATTTGGATAAGGATTAACAAAGACAAAACACATACGTGTTTTGGTGTTGAGCTAAAATAAGATATTTTGGCTCTCGCTATAAA (double strand) [pCAT1 box1 mutation probe]", "binding": "binds more weakly"}
{"sequence": "TCCTGAAATGGATCAACAATTGTCTAATTATGGTATAGTATCTGGCGAAATCAAAGACGATATCATCCACACGTAATTAGTTTGACTATTAATACGAGGATTATCATTTGGATAAGGATTAACAAAGACAAAACACATACGTGTTTTGGTGTTGAGCTAAAATAAGATATTTTGGCTCTCGCTATAAA (double strand) [pCAT1 wild type probe (-296/-108)]", "binding": "binds"}
{"sequence": "TCCTGAAATGGATCAACAATTGTCTAATTATGGTATAGTATCTGGCGAAATCAAAGACGATATCATCCACACGTAATTAGTTTGACTATTAATACGAGGATTATCATTTGGATAAGGATTAACAAAGACAAAACACATTTTTGTTTTGGTGTTGAGCTAAAATAAGATATTTTGGCTCTCGCTATAAA (double strand) [pCAT1 box2 mutation probe]", "binding": "binds more weakly"}
